{"source": "patent US20240216271A1", "about": "“HYDROLYTICALLY DEGRADABLE HYDROGELS AND USES THEREOF” (GEORGIA TECH RESEARCH CORPORATION, priority 2021, published 2024)", "system": "primary monocytes derived from the bone marrow of C57BL/6J mice", "test": "Bone marrow derived macrophage co-culture with microgels (flow cytometry)", "assay_type": "cell-based", "conditions": "48 hr of co-culture", "excerpt": "To assess the effects of microgels on immune cell polarization in vitro, a co-culture system was setup involving primary monocytes derived from the bone marrow of C57BL/6J mice with different formulations of crosslinked microgels. […] In addition, the overall expression of these markers was equivalent after 4 days of co-culture (FIGS. 11A-D).\nBone Marrow Derived Macrophage Co-culture: Bone marrow was isolated from the femurs and tibias of 6-week-old male C57BL/6J mice. Bones were cleaned of soft tissue, one side was cut to expose the marrow, and they were inverted in a 200 μL pipet tip cut to fit in a 1.5 mL Eppendorf tube. The bones were then centrifuged at 10,000×g for 15 sec to pellet the marrow in the bottom of the Eppendorf tube. Bones were discarded and cells were then resuspended in RBC Lysis Buffer (Biolegend 420302) to remove red blood cells. Cells were then washed in MACS buffer (DPBS pH 7.2, 0.5% BSA, 2 mM EDTA) and monocytes were isolated using the Monocyte Isolation Kit (BM), mouse (Miltenyi Biotec 130-100-629) and LS columns (Miltenyi Biotec 130-042-401).\nMonocytes were cultured in RPMI 1640 media (Gibco 11875-085) supplemented with 10% heat-inactivated fetal bovine serum, 1% pen/strep, and 20 ng/mL murine M-CSF (Biolegend 574804) for 6 days in low-adherent plates. […] Samples were analyzed on a FACS-AriaIIIu flow cytometer (BD Biosciences)."}
{"substance": "IL-4: murine IL-4, 20 ng/ml; IL-4-polarized M2 positive control", "values": [{"measurement": "cell viability / cell survival", "result": "increase in cell numbers"}]}
